According to IntAct's records for PubMed 11739743:

B1: Cell cycle protein kinase spo4 (Schizosaccharomyces pombe (strain ATCC 38366 / 972)), Q9UQY9 (parent)
chain: MLSMLLPFGNSGVYASDVDREDRPEIAKLVQAFPTIEEDYHVVKLVGAGSFSSVFKAVDRHFDSYDNSYWISSQIEDQMPHDKTKRPKNHFVALKRIYATVLPSRIQTELEMLHELRGSDCVLNMITAVRHQDQVLIVLPFIQHAEFRDFYMKYSLPEIGAYLRDLLKGLAHIDAKGIIHRDIKPGNFAWNPYTQRGVILDFGLAQWQEADAPTENCCVDKLRKLKQEGKYYDYFPFEKTIADPPEGYLLHDPRPTKRADRAGTRGFRAPEVLFRCQNQTSSIDVWSVGVILLCFLTHRYPFFRCEDDIDAIVELAHIFGRNGMSNCALLHGQIWSDNIPTLLDQKHNWLDLIASITKNDENLILETSSDYQVALAIDLLDKLLELHPSKRVKAKTALQHEFFNACGVTRSGFEAENPFRSDFPSTVEQ
partner: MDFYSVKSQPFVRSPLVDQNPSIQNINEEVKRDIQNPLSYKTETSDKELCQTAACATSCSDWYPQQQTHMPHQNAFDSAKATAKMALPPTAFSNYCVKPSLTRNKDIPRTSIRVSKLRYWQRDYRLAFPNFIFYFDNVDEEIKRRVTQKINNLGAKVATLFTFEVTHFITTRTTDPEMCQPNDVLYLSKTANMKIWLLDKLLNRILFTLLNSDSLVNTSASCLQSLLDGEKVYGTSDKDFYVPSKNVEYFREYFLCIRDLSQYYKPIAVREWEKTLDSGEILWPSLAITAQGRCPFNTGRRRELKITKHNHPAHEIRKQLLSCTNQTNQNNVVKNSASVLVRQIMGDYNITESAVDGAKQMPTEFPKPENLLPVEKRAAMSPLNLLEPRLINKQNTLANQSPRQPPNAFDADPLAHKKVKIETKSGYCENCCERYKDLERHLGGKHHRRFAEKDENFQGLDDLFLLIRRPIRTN

Variants of: B1
Conditions: with spo6_schpo spo6, Q9Y7J1

effect of a mutation on the interaction	Variant
with no effect	K95A
